Measurements reported in the Immune Epitope Database (IEDB).

Legend:
HLA-A*01:01 = experiment: IEDB peptide-MHC binding, purified MHC/competitive/fluorescence; filed as Kd, often an IC50 or EC50 that approximates it; ≥ and ≤ were set here for values at or beyond the usual limits of such assays; conditions: source organism: Pseudomonas aeruginosa UCBPP-PA14
HLA-A*03:01 = experiment: as above
HLA-A*11:01 = experiment: as above; conditions: source organism: Pseudomonas aeruginosa UCBPP-PA14
HLA-A*24:02 = experiment: as above; conditions: source organism: Pseudomonas aeruginosa UCBPP-PA14
HLA-A*26:01 = experiment: as above
HLA-A*30:01 = experiment: as above; conditions: source organism: Pseudomonas aeruginosa UCBPP-PA14
HLA-A*31:01 = experiment: as above; conditions: source organism: Pseudomonas aeruginosa UCBPP-PA14
HLA-A*69:01 = experiment: as above
HLA-B*07:02 [1] = experiment: as above; conditions: source organism: Pseudomonas aeruginosa UCBPP-PA14
HLA-B*08:01 = experiment: as above; conditions: source organism: Pseudomonas aeruginosa UCBPP-PA14
HLA-B*15:01 [2] = experiment: as above
HLA-B*27:05 = experiment: as above; conditions: source organism: Pseudomonas aeruginosa UCBPP-PA14
HLA-B*40:01 = experiment: as above; conditions: source organism: Pseudomonas aeruginosa UCBPP-PA14
HLA-B*58:01 = experiment: as above; conditions: source organism: Pseudomonas aeruginosa UCBPP-PA14
HLA-A*02:01 = experiment: as above
HLA-A*02:03 = experiment: as above
HLA-A*02:11 = experiment: as above
HLA-A*02:12 = experiment: as above
HLA-A*02:16 = experiment: as above
HLA-A*02:19 = experiment: as above
HLA-A*29:02 = experiment: as above
HLA-A*68:02 = experiment: as above
HLA-B*18:01 = experiment: as above
HLA-B*27:03 = experiment: as above
HLA-B*39:01 = experiment: as above
HLA-B*46:01 [3] = experiment: as above
HLA-B*51:01 = experiment: as above
HLA-B*57:01 = experiment: as above
HLA-A*23:01 = experiment: as above
HLA-A*24:03 = experiment: as above
HLA-B*07:02 [4] = experiment: IEDB peptide-MHC binding, purified MHC/direct/fluorescence; filed as Kd, often an IC50 or EC50 that approximates it; ≥ and ≤ were set here for values at or beyond the usual limits of such assays; conditions: source organism: Escherichia coli O157:H7 str. EC869
HLA-B*15:01 [5] = experiment: as above; conditions: source organism: Escherichia coli O157:H7
HLA-B*15:02 = experiment: as above; conditions: source organism: Escherichia coli O157:H7 str. EC869
HLA-B*35:01 = experiment: as above; conditions: source organism: Escherichia coli O157:H7 str. EC869
HLA-B*46:01 [6] = experiment: as above; conditions: source organism: Escherichia coli O157:H7
HLA-B*15:17 = experiment: IEDB peptide-MHC binding, purified MHC/competitive/fluorescence; filed as Kd, often an IC50 or EC50 that approximates it; ≥ and ≤ were set here for values at or beyond the usual limits of such assays; conditions: source organism: Cryptosporidium parvum Iowa II
[7] = source organism: Pseudomonas aeruginosa UCBPP-PA14
[8] = source organism: Giardia lamblia ATCC 50803
[9] = source organism: Entamoeba dispar SAW760
[10] = source organism: Cryptosporidium parvum Iowa II

AVFDGCVVY was tested, and the Kd (HLA-A*01:01) was ≥ 20 µM, the Kd (HLA-A*03:01; [7]) was 0.291 µM and the Kd (HLA-A*11:01) was 0.0306 µM. For the same sequence, the Kd (HLA-A*24:02) was ≥ 20 µM, the Kd (HLA-A*26:01; [7]) was ≥ 20 µM and the Kd (HLA-A*30:01) was ≥ 20 µM. For the same sequence, the Kd (HLA-A*31:01) was 1.26 µM, the Kd (HLA-A*69:01; [7]) was ≥ 20 µM and the Kd (HLA-B*07:02 [1]) was ≥ 20 µM. For the same sequence, the Kd (HLA-B*08:01) was ≥ 20 µM, the Kd (HLA-B*15:01 [2]; [7]) was 0.11 µM and the Kd (HLA-B*27:05) was ≥ 20 µM. The Kd (HLA-B*40:01) was ≥ 20 µM and the Kd (HLA-B*58:01) was 1.12 µM.

ELLDHLLLF was tested, and the Kd (HLA-A*02:01; [8]) was ≥ 20 µM, the Kd (HLA-A*02:03; [8]) was ≥ 20 µM and the Kd (HLA-A*02:11; [8]) was ≥ 20 µM. The Kd (HLA-A*02:12; [8]) was ≥ 20 µM, the Kd (HLA-A*02:16; [8]) was ≥ 20 µM and the Kd (HLA-A*02:19; [8]) was 0.98 µM. For the same sequence, the Kd (HLA-A*03:01; [8]) was ≥ 20 µM, the Kd (HLA-A*29:02; [8]) was 0.0161 µM and the Kd (HLA-A*68:02; [8]) was ≥ 20 µM. The Kd (HLA-B*15:01 [2]; [8]) was ≥ 20 µM, the Kd (HLA-B*18:01; [8]) was ≥ 20 µM and the Kd (HLA-B*27:03; [8]) was ≥ 20 µM. For the same sequence, the Kd (HLA-B*39:01; [8]) was ≥ 20 µM, the Kd (HLA-B*46:01 [3]; [8]) was ≥ 20 µM and the Kd (HLA-B*51:01; [8]) was ≥ 20 µM. For the same sequence, the Kd (HLA-B*57:01; [8]) was ≥ 20 µM.

KGFFRVFKK was tested, and the Kd (HLA-A*02:01; [9]) was ≥ 20 µM, the Kd (HLA-A*02:03; [9]) was ≥ 20 µM and the Kd (HLA-A*02:11; [9]) was ≥ 20 µM. For the same sequence, the Kd (HLA-A*02:12; [9]) was ≥ 20 µM, the Kd (HLA-A*02:16; [9]) was ≥ 20 µM and the Kd (HLA-A*02:19; [9]) was ≥ 20 µM. The Kd (HLA-A*03:01; [9]) was 0.0049 µM, the Kd (HLA-A*23:01; [9]) was ≥ 20 µM and the Kd (HLA-A*24:03; [9]) was ≥ 20 µM. For the same sequence, the Kd (HLA-A*26:01; [9]) was ≥ 20 µM, the Kd (HLA-A*29:02; [9]) was 0.189 µM and the Kd (HLA-A*68:02; [9]) was ≥ 20 µM. The Kd (HLA-A*69:01; [9]) was ≥ 20 µM, the Kd (HLA-B*15:01 [2]; [9]) was ≥ 20 µM and the Kd (HLA-B*18:01; [9]) was ≥ 20 µM. The Kd (HLA-B*39:01; [9]) was ≥ 20 µM, the Kd (HLA-B*46:01 [3]; [9]) was ≥ 20 µM and the Kd (HLA-B*51:01; [9]) was ≥ 20 µM. The Kd (HLA-B*57:01; [9]) was ≥ 20 µM.

NIAAPYLPF showed a Kd (HLA-B*07:02 [4]) of 2.21 µM, a Kd (HLA-B*15:01 [5]) of 0.107 µM and a Kd (HLA-B*15:02) of 0.013 µM. The Kd (HLA-B*35:01) was 0.01 µM and the Kd (HLA-B*46:01 [6]) was ≥ 20 µM.

In the case of RLKHIFLIF, the Kd (HLA-A*02:01; [10]) is reported as ≥ 20 µM, the Kd (HLA-A*02:03; [10]) is reported as ≥ 20 µM and the Kd (HLA-A*02:11; [10]) is reported as ≥ 20 µM. For the same sequence, the Kd (HLA-A*02:12; [10]) was ≥ 20 µM, the Kd (HLA-A*02:16; [10]) was ≥ 20 µM and the Kd (HLA-A*02:19; [10]) was ≥ 20 µM. The Kd (HLA-A*03:01; [10]) was ≥ 20 µM, the Kd (HLA-A*23:01; [10]) was ≥ 20 µM and the Kd (HLA-A*24:03; [10]) was ≥ 20 µM. The Kd (HLA-A*26:01; [10]) was ≥ 20 µM, the Kd (HLA-A*29:02; [10]) was ≥ 20 µM and the Kd (HLA-A*68:02; [10]) was ≥ 20 µM. The Kd (HLA-A*69:01; [10]) was ≥ 20 µM, the Kd (HLA-B*15:17) was ≥ 20 µM and the Kd (HLA-B*18:01; [10]) was ≥ 20 µM. For the same sequence, the Kd (HLA-B*27:03; [10]) was ≥ 20 µM, the Kd (HLA-B*39:01; [10]) was ≥ 20 µM and the Kd (HLA-B*46:01 [3]; [10]) was ≥ 20 µM. The Kd (HLA-B*51:01; [10]) was ≥ 20 µM and the Kd (HLA-B*57:01; [10]) was ≥ 20 µM.
